From patent publication US20220098329A1 (Memorial Sloan Kettering, published 2022)
Positions count from the first letter of the chain named.

B1: 2+2 IgG-[L]-scFv, anti-CD33 Fab x anti-CD3 scFv (bispecific antibody)
light: EIVLTQSPATLSVSLGERATISCRASESVDNYGISFMNWFQQKPGQPPRLLIYAASNQGSGVPARFSGSGPGTDFTLTISSMEPEDFAMYFCQQSKEVPWTFGGGTKLEIKRTVAAPSVFIFPPSDEQLKSGTASVVCLLNNFYPREAKVQWKVDNALQSGNSQESVTEQDSKDSTYSLSSTLTLSKADYEKHKVYACEVTHQGLSSPVTKSFNRGECTSGGGGSGGGGSGGGGSQVQLVQSGGGVVQPGRSLRLSCKASGYTFTRYTMHWVRQAPGKCLEWIGYINPSRGYTNYNQKFKDRFTISRDNSKNTAFLQMDSLRPEDTGVYFCARYYDDHYSLDYWGQGTPVTVSSGGGGSGGGGSGGGGSGGGGSGGGGSGGGGSDIQMTQSPSSLSASVGDRVTITCSASSSVSYMNWYQQTPGKAPKRWIYDTSKLASGVPSRFSGSGSGTDYTFTISSLQPEDIATYYCQQWSSNPFTFGCGTKLQITR
heavy: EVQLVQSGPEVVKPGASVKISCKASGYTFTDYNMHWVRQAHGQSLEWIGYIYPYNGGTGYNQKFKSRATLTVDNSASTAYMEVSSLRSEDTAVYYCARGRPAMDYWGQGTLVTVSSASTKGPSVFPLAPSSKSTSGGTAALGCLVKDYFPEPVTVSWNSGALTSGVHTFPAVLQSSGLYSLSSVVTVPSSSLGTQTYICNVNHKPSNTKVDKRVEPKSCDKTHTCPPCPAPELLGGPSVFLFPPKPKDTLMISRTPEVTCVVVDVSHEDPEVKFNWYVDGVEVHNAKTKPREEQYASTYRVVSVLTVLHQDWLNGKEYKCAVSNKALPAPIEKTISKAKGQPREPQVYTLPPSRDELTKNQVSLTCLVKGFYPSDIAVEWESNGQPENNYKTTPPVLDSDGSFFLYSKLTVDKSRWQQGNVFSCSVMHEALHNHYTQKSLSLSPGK
notes: also called 2+2 (CD33); anti-CD33/CD3 IgG-[L]-scFv
B2: 1+1T IgG-[L]-scFv variant, one anti-GD2 Fab and one anti-CD3 scFv in trans, second Fab irrelevant (anti-CD33) (bispecific antibody)
light 1: EIVMTQTPATLSVSAGERVTITCKASQSVSNDVTWYQQKPGQAPRLLIYSASNRYSGVPARFSGSGYGTEFTFTISSVQSEDFAVYFCQQDYSSFGQGTKLEIKRTVAAPSVFIFPPSDEQLKSGTASVVCLLNNFYPREAKVQWKVDNALQSGNSQESVTEQDSKDSTYSLSSTLTLSKADYEKHKVYACEVTHQGLSSPVTKSFNRGEC
heavy 1: not shown
light 2: B1 light
heavy 2: not shown
B3: IgG-Het, heterodimeric IgG with one anti-GD2 Fab and one anti-CD3 Fab (1+1) (bispecific antibody)
light 1: B2 light 1
heavy 1: not shown
light 2: DIQMTQSPSSLSASVGDRVTITCSASSSVSYMNWYQQTPGKAPKRWIYDTSKLASGVPSRFSGSGSGTDYTFTISSLQPEDIATYYCQQWSSNPFTFGQGTKLQITRTVAAPSVFIFPPSDEQLKSGTASVVCLLNNFYPREAKVQWKVDNALQSGNSQESVTEQDSKDSTYSLSSTLTLSKADYEKHKVYACEVTHQGLSSPVTKSFNRGEC
heavy 2: not shown
notes: also called 1+1H; 1 + 1H
B4: 1+2 IgG-[L]-scFv variant, one anti-GD2 Fab, one irrelevant (anti-CD33) Fab, two anti-CD3 scFv (1(GD2)+2(CD3)) (bispecific antibody)
light 1: EIVMTQTPATLSVSAGERVTITCKASQSVSNDVTWYQQKPGQAPRLLIYSASNRYSGVPARFSGSGYGTEFTFTISSVQSEDFAVYFCQQDYSSFGQGTKLEIKRTVAAPSVFIFPPSDEQLKSGTASVVCLLNNFYPREAKVQWKVDNALQSGNSQESVTEQDSKDSTYSLSSTLTLSKADYEKHKVYACEVTHQGLSSPVTKSFNRGECTSGGGGSGGGGSGGGGSQVQLVQSGGGVVQPGRSLRLSCKASGYTFTRYTMHWVRQAPGKCLEWIGYINPSRGYTNYNQKFKDRFTISRDNSKNTAFLQMDSLRPEDTGVYFCARYYDDHYSLDYWGQGTPVTVSSGGGGSGGGGSGGGGSGGGGSGGGGSGGGGSDIQMTQSPSSLSASVGDRVTITCSASSSVSYMNWYQQTPGKAPKRWIYDTSKLASGVPSRFSGSGSGTDYTFTISSLQPEDIATYYCQQWSSNPFTFGCGTKLQITR
heavy 1: not shown
light 2: B1 light
heavy 2: not shown
notes: also called 1+2 BsAb
B5: 1+1C IgG-[L]-scFv variant, one anti-GD2 Fab and one anti-CD3 scFv in cis, second Fab irrelevant (anti-CD33) (bispecific antibody)
light 1: B4 light 1
heavy 1: not shown
light 2: EIVLTQSPATLSVSLGERATISCRASESVDNYGISFMNWFQQKPGQPPRLLIYAASNQGSGVPARFSGSGPGTDFTLTISSMEPEDFAMYFCQQSKEVPWTFGGGTKLEIKRTVAAPSVFIFPPSDEQLKSGTASVVCLLNNFYPREAKVQWKVDNALQSGNSQESVTEQDSKDSTYSLSSTLTLSKADYEKHKVYACEVTHQGLSSPVTKSFNRGEC
heavy 2: not shown
B6: 2+1 IgG-[L]-scFv variant, two anti-GD2 Fabs and one anti-CD3 scFv (2(GD2)+1(CD3)) (bispecific antibody)
light 1: B4 light 1
light 2: B2 light 1
heavy 1: QVQLVESGPGVVQPGRSLRISCAVSGFSVTNYGVHWVRQPPGKGLEWLGVIWAGGITNYNSAFMSRLTISKDNSKNTVYLQMNSLRAEDTAMYYCASRGGHYGYALDYWGQGTLVTVSSASTKGPSVFPLAPSSKSTSGGTAALGCLVKDYFPEPVTVSWNSGALTSGVHTFPAVLQSSGLYSLSSVVTVPSSSLGTQTYICNVNHKPSNTKVDKRVEPKSCDKTHTCPPCPAPELLGGPSVFLFPPKPKDTLMISRTPEVTCVVVDVSHEDPEVKFNWYVDGVEVHNAKTKPREEQYASTYRVVSVLTVLHQDWLNGKEYKCAVSNKALPAPIEKTISKAKGQPREPQVYTLPPSRDELTKNQVSLTCLVKGFYPSDIAVEWESNGQPENNYKTTPPVLDSDGSFLLYSKLTVDKSRWQQGNVFSCSVMHEALHNHYTQKSLSLSPGK
heavy 2: B6 heavy 1 with L407F, K411R
notes: Heterodimer made by Fab arm exchange; Choice of the first anti-GD2 set as for m1; also called 2+1 BsAb
B7: 2+2 IgG-[L]-scFv bispecific antibody, anti-GD2 Fab x anti-CD3 scFv (2(GD2)+2(CD3)) (bispecific antibody)
light: B4 light 1
heavy: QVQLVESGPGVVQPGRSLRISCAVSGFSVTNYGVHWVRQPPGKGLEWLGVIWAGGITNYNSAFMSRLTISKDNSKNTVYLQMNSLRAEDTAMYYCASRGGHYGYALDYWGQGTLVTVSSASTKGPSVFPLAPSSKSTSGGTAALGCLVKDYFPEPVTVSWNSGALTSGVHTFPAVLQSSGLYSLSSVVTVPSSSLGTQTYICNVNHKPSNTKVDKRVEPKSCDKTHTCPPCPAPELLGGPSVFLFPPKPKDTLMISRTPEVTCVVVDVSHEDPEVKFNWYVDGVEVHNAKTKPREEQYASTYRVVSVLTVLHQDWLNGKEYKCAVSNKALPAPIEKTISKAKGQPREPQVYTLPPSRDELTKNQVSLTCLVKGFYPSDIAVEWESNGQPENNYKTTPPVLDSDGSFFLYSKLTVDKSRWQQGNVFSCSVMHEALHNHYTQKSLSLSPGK
notes: Homodimeric format; also called 2+2 BsAb; parental 2+2

Molecular target: T1, CD33 on MOLM13-fluc cells (UniProt P20138 18-364, limits assumed)
T1 construct: whole, on cells; also called CD33(+) MOLM13-fluc
T1 sequence (P20138 18-364 limits assumed): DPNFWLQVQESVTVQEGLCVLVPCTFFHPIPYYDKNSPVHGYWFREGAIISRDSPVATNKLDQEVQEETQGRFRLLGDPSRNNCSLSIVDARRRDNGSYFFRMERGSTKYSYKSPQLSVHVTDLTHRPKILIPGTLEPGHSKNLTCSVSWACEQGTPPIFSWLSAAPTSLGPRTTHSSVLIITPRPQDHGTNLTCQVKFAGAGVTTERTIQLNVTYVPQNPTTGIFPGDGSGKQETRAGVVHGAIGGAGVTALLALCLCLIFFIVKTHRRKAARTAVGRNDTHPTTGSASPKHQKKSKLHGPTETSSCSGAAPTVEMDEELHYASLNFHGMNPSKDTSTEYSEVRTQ
Experiment: flow cytometry, CD33(+) MOLM13-fluc cells

binding result | Binder
binds | B1

Molecular target: T2, huCD3de antigen (human CD3 delta/epsilon, coated on SPR chip) (human, UniProt P07766 23-126; P04234 22-105)
T2 construct: Source and construct are not described; also called CD3 coated chips
T2 sequence (P07766 23-126, stated change not applied, chain 1 of 2): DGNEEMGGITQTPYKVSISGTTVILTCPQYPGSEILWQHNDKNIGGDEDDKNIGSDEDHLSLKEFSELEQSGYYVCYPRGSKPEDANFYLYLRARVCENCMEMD
T2 sequence (P04234 22-105, stated change not applied, chain 2 of 2): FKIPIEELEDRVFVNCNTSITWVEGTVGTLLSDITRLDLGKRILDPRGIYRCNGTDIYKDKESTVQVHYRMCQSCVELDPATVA
Experiment: SPR (Biacore T200), huCD3de-coated chip

Fold Change (KD CD3, against 2+2) | Binder
8.5 fold | B2
6.8 fold | B3
1 fold | B4
11 fold | B5
30.1 fold | B6

Molecular target: T2, huCD3de antigen (human CD3 …)
Experiment: SPR (Biacore T200), huCD3de-coated chip, BsAb titrated over chip, two-state reaction model

Kd | Binder
88 nM | B2
70 nM | B3
10 nM | B7
11 nM | B4
110 nM | B5
310 nM | B6
